From patent US20130266566A1

T1: rat PAI-1 (rat) (UniProt P20961)
T1 sequence: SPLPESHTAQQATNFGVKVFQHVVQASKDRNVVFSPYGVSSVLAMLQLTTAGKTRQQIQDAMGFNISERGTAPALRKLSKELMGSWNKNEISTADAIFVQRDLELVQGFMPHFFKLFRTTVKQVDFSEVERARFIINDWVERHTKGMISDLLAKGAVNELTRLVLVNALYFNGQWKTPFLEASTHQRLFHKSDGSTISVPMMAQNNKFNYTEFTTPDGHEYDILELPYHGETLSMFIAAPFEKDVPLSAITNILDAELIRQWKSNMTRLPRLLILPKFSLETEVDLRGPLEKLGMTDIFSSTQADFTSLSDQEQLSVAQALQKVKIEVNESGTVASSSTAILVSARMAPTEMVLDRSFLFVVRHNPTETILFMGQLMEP

B1: Antibody 18 scFv (scFv, V domains shown, part only)
VH: QVQLQQSGAEVKKPGSSVKVSCKASGGTFSSYAISWVRQAPGQGLEWMGGIIPTFGTANYAQKLQGRVTITADESTSTAYMELSGLRSEDTAVYYCAREKRQWLEGHFDYWGRGTPVTVSS
VL: DIQMTQSPSFLSASIGDRVTITCRASEGIYHALAWYQQKPGKAPKLLIYRASSLASGAPSRFSGSGSGTDFTLTISSLQPDDFATYYCQQYSNYPLTFGGGTKLEIK
modifications: linker not stated
B2: mouse PAI-1 (protein)
chain: ALPLRESHTAHQATDFGVKVFQQVVQASKDRNVVFSPYGVSSVLAMLQMTTAGKTRRQIQDAMGFKVNEKGTAHALRQLSKELMGPWNKNEISTADAIFVQRDLELVQGFMPHFFKLFQTMVKQVDFSEVERARFIINDWVERHTKGMINDLLAKGAVDELTRLVLVNALYFSGQWKTPFLEASTHQRLFHKSDGSTVSVPMMAQSNKFNYTEFTTPDGLEYDVVELPYQGDTLSMFIAAPFEKDVHLSALTNILDAELIRQWKGNMTRLPRLLILPKFSLETEVDLRGPLEKLGMPDMFSATLADFTSLSDQEQLSVAQALQKVRIEVNESGTVASSSTAFVISARMAPTEMVIDRSFLFVVRHNPTETILFMGQVMES

How the values were obtained:
[1] = biological target: active human PAI-1, recombinant, wild-type, non-glycosylated (E. coli) (human) (UniProt P05121); assay: cell-based or functional assay
Chain of active human PAI-1, recombinant, wild-type, non-glycosylated (E. coli) (human) (P05121 24-402): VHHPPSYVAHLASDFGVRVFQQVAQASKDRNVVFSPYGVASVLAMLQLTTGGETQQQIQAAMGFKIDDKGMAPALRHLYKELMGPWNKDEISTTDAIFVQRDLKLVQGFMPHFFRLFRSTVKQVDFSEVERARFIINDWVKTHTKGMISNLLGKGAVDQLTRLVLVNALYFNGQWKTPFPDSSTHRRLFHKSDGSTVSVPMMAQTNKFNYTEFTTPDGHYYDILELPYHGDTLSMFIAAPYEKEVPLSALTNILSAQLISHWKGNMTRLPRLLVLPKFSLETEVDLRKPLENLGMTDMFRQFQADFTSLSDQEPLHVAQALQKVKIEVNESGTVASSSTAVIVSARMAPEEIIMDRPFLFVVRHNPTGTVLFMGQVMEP

[2] = biological target: T1, rat PAI-1 (rat); assay: cell-based or functional assay
[3] = biological target: Antibody 16 IgG1, not germlined; assay: competition binding assay: Antibody 16 IgG adsorbed to the plate, biotinylated active human PAI-1 plus a titration of the unlabelled competitor, streptavidin-Europium detection

| Binder | Chromogenic (IC50 in nM) human [1] [nM] | Chromogenic (IC50 in nM) rat [2] [nM] | Chromogenic IC50 ratio rat/human [2] [fold] | HT-1080 Exo PAI-1 (IC50 in nM) rat [2] [nM] | IC50 in the rat chromogenic assay, fold higher than in the human assay [2] [fold] | IC50 (read off the curve) [3] [nM] |
| --- | --- | --- | --- | --- | --- | --- |
| B1 | 1.3 | 238 | 190 | 37 | 180 |  |
| B2 |  |  |  |  |  | 6 |
